From US20100261660A1 (published 2010)

B1: Round 2 CTLA4BP-5x3-11b (ligand)
chain: VIHVTKEVKEVATLSCGHNVSVEELAQTRIYWQKEKKMVLTMMSGDMNIWPEYKNRTIFDITNNLSIVILALRSSDEGTYECVVLKYEKDAFKREHLAEVTLSVKADFPTPSITDFEIPPSNIRRIICSTSGGFPEPHLSWLENGEELNAISTTVSQDPETELYTVSSKLDFNMTTNRSFVCLIKYGHLRVNQTFNWNTPKQEHFPDNLLPSWAITLISVNGIFVICCLTYCFAPRCRERRSNERLRRESVRPV
B2: Round 2 CTLA4BP-5x4-1f (ligand)
chain: VIHVTKEVKEVATLSCGHNVSVEELAQTRIHWQKEKKMVLTMMSGDMNIWPEYKNRTIFDITNNLSIVILALRPSDEGTYECVVLKYEKDAFKREHLAEVMLSVKADFPTPSISDFEIPTSNIRRIICSTSGGFPEPHLFWLENGEELNAINTTVSQDPETELYTVSSKLDFNMTTNHSFMCLIKYGHLRVNQTFNWNTPKQEHFPDNLLPSWAITLISVNGIFVICCLTYCFAPRCRERRRNERLRRESVCPV
B3: Round 2 CTLA4BP-5x4-11d (ligand)
chain: VIHVTKEVKEVATLSCGLNVSVEELAQTRIHWQKEKKMVLTMMSGDMNIWPEYKNRTIFDITNNLSIVILALRPSDEGTYECVVLKYDKDAFKREHLAEVTLSVKADFPTPSISDFEIPPSNIRRIICSTSGGFPEPHLSWLENGEELNAINTTVSQDPETELYTVSSKLDFNMTANHSFVCLIKYGHLRVNQTFNWNTPKQEHFPDNLLPSWAITLISVNGIFVICCLTYRFAPRCRERKSNERLRRESVRPV
B4: Round 2 CTLA4BP-5x4-12c (ligand)
chain: VIHVTKEVKEVATLSCGHNVSVEELAQTRIHWQKEKKMVLTMMSGDMNIWPEYKNRTIFDITNNLSIVILALRPSDEGTYECVVLKYEKDAFKREHLAEVMLSVKADFPTPSISDFEIPPSNIRRIICSTSGGFPEPHLFWLENGEELNAINTTVSQDPETELYTVSSKLDFNMTTNHSFMCLIKYGHLRVNQTFNWNTPKQEHFPDNLLPSWAITLISANGIFVICCLTYRFAPRCRERKSNETLRRESVRPV
notes: residues 1-34 left out as the signal peptide; also called CTLA-4BP 5×4-12c; clone R2 CTLA-4BP 5×4-12c
B5: Round 2 CTLA4BP-5x5-2e (ligand)
chain: VIHVTKEVKEVATLSCGLNVSVEELAQTRIHWQKEKKMVLTMMSGDMNIWPEYKNRTIFDITNNLSIVILALRPSDEGTYECVVLKYEKDAFKREHLAEVMLSVKADFPTPSISDFEIPPSNIRRIICSTSGGFPEPHLSWLENGEELNAINTTVSQDPETELYAVSSKLDFNMTTNHSFMCLIKYGHLRVNQTFNWNTPKQEHFPDNLLPSWAITLISVNGIFVICCLTYCFAPRCRERRRNETLRRESVRPV
B6: Round 2 CTLA4BP-5x5-6e (ligand)
chain: VIHVTKEVKEVATLSCGHNVSVEELAQTRIHWQKEKKMVLTMMSGDMNIWPEYKNRTIFDITNNLSIVILALRPSDEGTYECVVLKYEKDAFKREHLAEVMLSVKADFPTPSITDFEIPPSNIRRIICSTSGGFPEPHLSWLENGEELNAISTTVSQDPETELYTVSSKLDFNMTTNHSFMCLIKYGHLRVNQTFNWNTTKQEHFPDNLLPSWAITLISANGIFVICCLTHCFAPRCRERKRNERLRRESVRPV
B7: Round 2 CTLA4BP-5x6-9d (ligand)
chain: VIHVTKEVKEVATLSCGHNVSVEELAQTRIHWQKEKKMVLTMMSGDMNIWPEYKNRTIFDITNNLSIVILALRPSDEGTYECVVLKYEKDAFKREHLAEVMLSVKADFPTPSISDFEIPTSNIRRIICSTSGGFPEPHLSWLENGEELNAINTTVSQDPETELYTVSSKLDFNMTANHSFVCLIKYGHLRVNQTFNWNTPKQEHFPDNLLPSWAITLISVNGIFVICCLTYCFAPRCRERRRNERLRRESVRPV
B8: Round 2 CTLA4BP-5x8-1f (ligand)
chain: VIHVTKEVKEVATLSCGHNVSVEELAQTRIHWQKEKKMVLTMMSGDMNIWPEYKNRTIFDITNNLSIVILALRPSDEGTYECVVLKYEKDAFKREHLAEVMLSVKADFPTPSITDFEIPPSNIRRIICSASGGFPEPHLFWLENGEELNAINTTVSQDPETELYAVSSKLDFNMTTNHSFMCLIRYGHLRVNQTFNWNTPKQEHFPDNLLPSWAITLISVNGIFVICCLTYCFAPRCRERKSNERLRRESVRPV
B9: Round 2 CTLA4BP-5x9-12c (ligand)
chain: VIHVTKEVKEVATLSCGHNVSVEELAQTRIHWQKEKKMVLTMMSGDMNIWPEYKNRTIFDITNNLSIVILALRPSDEGTYECVVLKYEKDAFKREHLAEVMLSVKADFPTPSITDFEIPPSNIRRIICSTSGGFPEPHLSWLENGEELNAINTTASQDPETELYTVSSKLDFNMTTNHSFMCLIKYGHLRVNQTFNWNTPKQEHFPDNLLPSWAITLISVNGIFVICCLTYCFAPRCRERKSNERLRRESVRPV
B10: Round 2 CTLA4BP 2x4-g9 (ligand)
chain: VIHVTKEVKEVATLSCGHNVSVEELAQTRIYWQKDKKMVLTMMSGDMNIWPEYKNQTIFDITNNLSIVILALRPSDEGTYECVVLKYEKDAFKQEHLAEVMLSVKADFPTPSISDFEIPPSNIRRIICSTSGGFPEPRLAWMEDGEELNAISTTVSQDPGTELCTVSSKLDFNMTTNHSFMCLIRYGHLRVNQTFNWNTPKQEHFPDNLLPSWAITLISVKGIFVICCLTYCFAPRGRERKSNGRLRRESVHPV
B11: Round 2 CTLA4BP 2x2-f3 (ligand)
chain: VIYVTKEVKEVATLSCGHNVSVEELAQTRIYWQKEKKMVLIMMSGDMNIWPEYKNRTIFDITNNLSIVILALRPSDEGTECVVLKYEKDAFKREHLAEVTLSVKADFPTPSISDFEIPPSNIRRIICSTSGGFPEPHLSWLENGEELNAINTTVSQDPGTELYTVSSKLDFNMTTNHSFMCLIKYGHLRVNQTFNWNTPKQEHFPDNLLPSWAITLISVNGIFVICCLTYCFAPRCRERRRNERLRRESVCPV
B12: Round 2 CTLA4BP 2x1-c9 (ligand)
chain: VIHVTKEVKEVATLSCGHNVSAEELAQTRIYWQKEKKMVLTMMSGDMNIWPEYKNRTIFDITNNLSIVILALRPSDEGTYECVVLEYEKDAFKREHLAEVMLSVKADFPTPSITDFEIPTSNIRRIICSTSGGFPEPRLAWMEDGEELNAISTTASQDPETELYTVSSKLDFNMTTNHSFMCLIKYGHLRVNQTFNWNTPKQEHFPDNLLPSWAITLISVNGIFVICCLTHCFAPRCRERRRNERLRRESVCPV
B13: Round 2 CTLA4BP 2x1-e2 (ligand)
chain: VIHVTKEVKEVATLSCGHNVSDEELAQTRIHWQKEKKMVLTMMSGDMNIWPEYKNRTIFDITNNLSIVILALRPSDEGTYECVVLKYEKDAFKREHLAEVTLSVKADFPTPSISDFEIPPSNIRRIICSTSGGFPEPHLSWLENGEELNAINTTVSQDPGTELYTVSSKLDFNMTTNHSFMCLIKYGHLRVNQTFNWNTPKQEHFPDNLLPSAITLISANGIFVICCLTYCFAPRCRERRRNERLRRESIHPV
B14: Round 2 CTLA4BP 2x3-h2 (ligand)
chain: VIHVTKEVKEVATLSCGHNVSVEELAQTRIYWQKEKKMVLTMMSGDMNIWPEYKNRTIFDITNNLSIVILALRPSDEGTYECVVLKYEKDAFKREHLAEVMLSVKADFPTPSISDFEIPPSNIRRIICSTPGGFPEPRLAWMEDGEELNAISTTVSQDPGTELYAVSSKLDFNMTTNHSFMCLIKYGHLRVNQTFNWNTTKQEHFPDNLLPSWAITLISVKGIFVICCLTYCFAPRWRERKSNERLRRESVRPV
B15: Round 2 CTLA4 A-H3-6 (ligand)
chain: GISQVTKSVKEMAALSCDYNISIDELARMRIYWQKDQQMVLSIISGQVEVWPEYKNRTFPDIINNLSLMILALRLSDKGTYTCVVQKNENGSFRREHLTSVTLSIRADFPVPSINDLGNPSPNIRRLICSTSGGFPRPHLYWLENGEELNATNTTLSQDPETKLYMISSELDFNMTSNHSFLCLVKYGDLTVSQTFYWQESKPTPSANQHLTWTIIIPVSAFGISVIIAVILTCLTCRNAAIRRQRRENEVEMQSCSQSP
B16: Round 2 CTLA4 A-B4-6 (ligand)
chain: ITPKSVTKRVKETVMLSCDYNTSTEELTSLRIYWQKDSKMVLAILPGKVQVWPEYKNRTITDMNDNPRIVILALRLSDKGTYTCVVQKNENGSFRREHLTSVTLSIRADFPVPTINDLGNPSPNIRRLICSTSGGFPRPHLYWLENGEELNATNTTLSQDPETKLYMISSELDFNMTSNHSFLCLVKYGDLTVSQTFYWQESKPTPSANQHLTWTIIIPVSAFGISVIIAVILTCLTCRNAAIRRQRRENEVEMQSCSQSP
B17: Round 2 CTLA4 A-E2-6 (ligand)
chain: ITPKSVTKRVKETVMLSCDYNTSTEELTSLRIYWQKDSKMVLAILPGKVQVWPEYKNRTITDMNDNPRIVILALRLSDSGTYTCVVQKNENGSFRREHLTSVRLMIRADFPVPTINDLGNPSPNIRRLICSTSGGFPRPHLYWLENGEELNATNTTLPQDPETKLYMISSELDFNMTSNHSFLCLVKYGDLTVSQTFYWQESKPTPSANQHLTWTIIIPVSAFGISVIIAVILTCLTCRNAAIRRQRRENEVEMQSCSQSP
B18: Round 2 CTLA4 A-F1-6 (ligand)
chain: ITPKSVTKRVKETVMLSCDYSTSTEELTSLRIYWQKDSKMVLAILPGKVQVWPEYKNRTITDMNDNPRIVILALRLSDKGTYTCVVQKNENGSFRREHLTSVRLMIRADFPVPTINDLGNPSPNIRRLICSTSGGFPRPHLYWLENGEELNATNTTLSQDPETKLYMISSELDFNMTSNHSFLCLVKYGDLTVSQTFYWQESKPTPSANQHLTWTIIIPVSAFGISVIIAVILTCLTCRNAAIRRQRRENEVEMQSCSQSP
B19: Round 2 CTLA4 A-F10-1 (ligand)
chain: ITPKSVTKRVKETVMLSCDYNTSTEELTSLRIYWQKDSKMVLAILPGKVQVWPEYKNRTITDMNDNPRIVILALRLSDKGTYTCVVQKNENGSFRREHLTSVTLSIRADFPVPTINDLGNPSPNIRRLICSTSGGFPRPHLYWLENGEELNATNTTLSQDPETKLYMISSELDFNMTSNHSFLCLVKYGDLTVSQTLYWQESKPTPSANQHLTWTIIIPVSAFGISVIIAVILTCLTCRNAAIRRQRRENEVEMQSCSQSP

target: T1, Soluble CTLA-4-Ig (extracellular domain of human CTLA-4 fused to the Fc portion of human IgG1) (human, UniProt P16410 36-161, FITC-conjugated in the FACS binding assays); test: competitive FACS on transfected cells, FITC-sCTLA-4-Ig with biotin-sCD28-Ig; grade 0-2 of CTLA-4/CD28 ratio vs WT hB7-1
T1 construct: extracellular domain; bought from R&D Systems; also called sCTLA-4-Ig; CTLA-4-Ig Fc; not shown: Fc portion of human IgG1
T1 sequence (P16410 36-161): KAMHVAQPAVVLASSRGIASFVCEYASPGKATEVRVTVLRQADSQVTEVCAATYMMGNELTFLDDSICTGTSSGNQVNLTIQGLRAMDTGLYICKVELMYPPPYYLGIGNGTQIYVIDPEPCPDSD

Q: Which “Binding Score” value does the source give for B1 here?
A: 1

Q: With B2 as the binder, how does the “Binding Score” value read?
A: 2

Q: B3 was tested. Which “Binding Score” value did it give?
A: 2

Q: With B4 as the binder, how does the “Binding Score” value read?
A: 2

Q: How did the “Binding Score” value turn out when B5 was run?
A: 2

Q: With B6 as the binder, how does the “Binding Score” value read?
A: 2

Q: With B7 as the binder, how does the “Binding Score” value read?
A: 2

Q: For B8, which “Binding Score” value is on record?
A: 2

Q: With B9 as the binder, how does the “Binding Score” value read?
A: 2

Q: Which “Binding Score” value does the source give for B10 here?
A: 1

Q: How did the “Binding Score” value turn out when B11 was run?
A: 1

Q: Which “Binding Score” value does the source give for B12 here?
A: 1

Q: B13 was tested. Which “Binding Score” value did it give?
A: 1

Q: How did the “Binding Score” value turn out when B14 was run?
A: 0

Q: B15 was tested. Which “Binding Score” value did it give?
A: 1

Q: For B16, which “Binding Score” value is on record?
A: 1

Q: How did the “Binding Score” value turn out when B17 was run?
A: 1

Q: B18 was tested. Which “Binding Score” value did it give?
A: 1

Q: Which “Binding Score” value does the source give for B19 here?
A: 1
